Laboratory results published in patent US20190119318A1.
“And” between values parts separate entries of the source, which are not always exact repeats. Equal entries are not always repeated.

Experiments:
[1] = target: human polyclonal IgG (Gammanorm) (human); test: column DBC; base C1; ligand […]
[2] = target: human polyclonal IgG (Gammanorm) (human); test: column DBC; base C3; ligand […]; conditions: ligand content 5.9 mg/ml
[3] = target: human polyclonal IgG (Gammanorm) (human); test: column DBC; base A20; ligand […]
[4] = target: human polyclonal IgG (Gammanorm) (human); test: column DBC; base A27; ligand […]
[5] = target: human polyclonal IgG (Gammanorm) (human); test: column DBC; base A32; ligand […]
[6] = target: human polyclonal IgG (Gammanorm) (human); test: column DBC; base A42; ligand […]
[7] = target: human polyclonal IgG (Gammanorm) (human); test: SPR; after 100 CIP cycles 0.5 M NaOH
[8] = target: human polyclonal IgG (Gammanorm) (human); test: column DBC; base I1; ligand 6.1 mg/ml
[9] = target: human polyclonal IgG (Gammanorm) (human); test: column DBC; base A27; ligand 7.5 mg/ml
[10] = target: human polyclonal IgG (Gammanorm) (human); test: column DBC; base A33; ligand 7.3 mg/ml
[11] = target: human polyclonal IgG (Gammanorm) (human); test: column DBC; base A40; ligand 6.1 mg/ml
[12] = target: human polyclonal IgG (Gammanorm) (human); test: column DBC; base C2; ligand 10.5 mg/ml
[13] = target: human polyclonal IgG (Gammanorm) (human); test: column DBC; base C4; ligand 10.1 mg/ml
[14] = target: human polyclonal IgG (Gammanorm) (human); test: column DBC; base H40; ligand 9.1 mg/ml
[15] = target: human polyclonal IgG (Gammanorm) (human); test: column DBC; base I1; ligand 11.2 mg/ml
[16] = target: human polyclonal IgG (Gammanorm) (human); test: column DBC; base A20; ligand 10.6 mg/ml
[17] = target: human polyclonal IgG (Gammanorm) (human); test: column DBC; base A28; ligand 15.8 mg/ml
[18] = target: human polyclonal IgG (Gammanorm) (human); test: column DBC; base A32; ligand 13.3 mg/ml
[19] = target: human polyclonal IgG (Gammanorm) (human); test: column DBC; base A38; ligand 11.3 mg/ml
[20] = target: human polyclonal IgG (Gammanorm) (human); test: column DBC; base A38; ligand 7.45 mg/ml
[21] = target: human polyclonal IgG (Gammanorm) (human); test: column DBC; base A39; ligand 10.5 mg/ml
[22] = target: human polyclonal IgG (Gammanorm) (human); test: column DBC; base A39; ligand 6.96 mg/ml
[23] = target: human polyclonal IgG (Gammanorm) (human); test: column DBC; base A42; ligand 6.72 mg/ml
[24] = target: human polyclonal IgG (Gammanorm) (human); test: column DBC; base A43; ligand 6.99 mg/ml
[25] = target: human polyclonal IgG (Gammanorm) (human); test: column DBC; base A62a; ligand 6.6 mg/ml
[26] = target: human polyclonal IgG (Gammanorm) (human); test: column DBC; base A62a; ligand 9.7 mg/ml
[27] = target: human polyclonal IgG (Gammanorm) (human); test: column DBC; base A63a; ligand 6.1 mg/ml
[28] = target: human polyclonal IgG (Gammanorm) (human); test: column DBC; base A63a; ligand 6.6 mg/ml
[29] = target: human polyclonal IgG (Gammanorm) (human); test: column DBC; base A65a; ligand 6.6 mg/ml
[30] = target: human polyclonal IgG (Gammanorm) (human); test: column DBC; base A40; ligand 11.03 mg/ml
[31] = target: human polyclonal IgG (Gammanorm) (human); test: column DBC; base A40; ligand 13.15 mg/ml
[32] = target: human polyclonal IgG (Gammanorm) (human); test: column DBC; base A62a; ligand 14.8 mg/ml
[33] = target: human polyclonal IgG (Gammanorm) (human); test: column DBC; base A63a; ligand 14.0 mg/ml
[34] = target: human polyclonal IgG (Gammanorm) (human); test: column DBC; ligand 13 mg/ml; before incubation in 1 M NaOH
[35] = target: human polyclonal IgG (Gammanorm) (human); test: column DBC; ligand 20 mg/ml; before incubation in 1 M NaOH

Zvar(Q9A,N11E,Q40V,A42K,N43A,L44I)4 (designed binder)
Qb10% 2.4 min [1]: 38 mg/mL
Qb10% 6 min [1]: 47 mg/mL
Qb10% 2.4 min [2]: 44 mg/mL
Qb10% 6 min [2]: 52 mg/mL
Qb10% 2.4 min [3]: 49 mg/mL
Qb10% 6 min [3]: 67 mg/mL
Qb10% 2.4 min [4]: 24.8 mg/mL
Qb10% 6 min [4]: 55.6 mg/mL
Qb10% 2.4 min [5]: 40 mg/mL
Qb10% 6 min [5]: 57 mg/mL
Qb10% 2.4 min [6]: 32.2 mg/mL
Qb10% 6 min [6]: 57.8 mg/mL
remaining capacity 100 cycles [7]: 90%
Qb10% 2.4 min [8]: 45 mg/mL
Qb10% 6 min [8]: 51 mg/mL
Qb10% 2.4 min [9]: 29.2 mg/mL
Qb10% 6 min [9]: 48.7 mg/mL
Qb10% 2.4 min [10]: 49 mg/mL
Qb10% 6 min [10]: 56 mg/mL
Qb10% 2.4 min [11]: 49 mg/mL
Qb10% 6 min [11]: 59 mg/mL
Qb10% 2.4 min [12]: 42 mg/mL
Qb10% 6 min [12]: 57 mg/mL
Qb10% 2.4 min [13]: 55 mg/mL
Qb10% 6 min [13]: 63 mg/mL
Qb10% 2.4 min [14]: 52 mg/mL
Qb10% 6 min [14]: 67 mg/mL
Qb10% 2.4 min [15]: 57 mg/mL
Qb10% 6 min [15]: 68 mg/mL
Qb10% 2.4 min [16]: 50.7 mg/mL and 51 mg/mL
Qb10% 6 min [16]: 70.1 mg/mL and 70 mg/mL
Qb10% 2.4 min [17]: 37 mg/mL
Qb10% 6 min [17]: 67 mg/mL
Qb10% 2.4 min [18]: 37 mg/mL
Qb10% 6 min [18]: 66 mg/mL
Qb10% 2.4 min [19]: 48 mg/mL
Qb10% 6 min [19]: 73 mg/mL
Qb10% 2.4 min [20]: 44.4 mg/mL
Qb10% 6 min [20]: 58.2 mg/mL
Qb10% 2.4 min [21]: 44 mg/mL
Qb10% 6 min [21]: 65 mg/mL
Qb10% 2.4 min [22]: 41.9 mg/mL
Qb10% 6 min [22]: 54.7 mg/mL
Qb10% 2.4 min [23]: 33.6 mg/mL
Qb10% 6 min [23]: 50 mg/mL
Qb10% 2.4 min [24]: 33.4 mg/mL
Qb10% 6 min [24]: 49.8 mg/mL
Qb10% 2.4 min [25]: 41 mg/mL
Qb10% 6 min [25]: 46 mg/mL
Qb10% 2.4 min [26]: 48 mg/mL
Qb10% 6 min [26]: 60 mg/mL
Qb10% 2.4 min [27]: 39 mg/mL
Qb10% 6 min [27]: 44 mg/mL
Qb10% 2.4 min [28]: 40 mg/mL
Qb10% 6 min [28]: 44 mg/mL
Qb10% 2.4 min [29]: 42 mg/mL
Qb10% 6 min [29]: 47 mg/mL
Qb10% 2.4 min [30]: 55 mg/mL
Qb10% 6 min [30]: 73.8 mg/mL
Qb10% 2.4 min [31]: 56.9 mg/mL
Qb10% 6 min [31]: 71.1 mg/mL
Qb10% 2.4 min [32]: 55 mg/mL
Qb10% 6 min [32]: 62 mg/mL
Qb10% 2.4 min [33]: 48 mg/mL
Qb10% 6 min [33]: 56 mg/mL
Qb10%, 6 min, before incubation [34]: 79 mg/mL
Qb10%, 6 min, before incubation [35]: 73 mg/mL
